B1: αNP-VHH1-HA (VHH)
VHH: QVQLQESGGGLVQAGGSLRLTCALSERTSTSYAQGWFRQPPGKEREFVASLRTHDGNTHYTDSVKGRFTISRDNAENTLYLQMNSLKTEDTAVYYCAASLGYSGAYASGYDYWGQGTQVTVSS
notes: also called anti-NP-VHH1-HA; HA-tagged anti-NP-VHH1; source: 293T, transfected (pCAGGS), in lysate
B2: αNP-VHH1-Alexa Fluor 647 (VHH)
VHH: B1 VHH

What was measured:
[1] = biological target: NP-Renilla wild type (NP of influenza virus A/WSN/33) (Influenza A virus A/WSN/33, UniProt P15682); assay: LUMIER; settings: partners not purified
[2] = biological target: NP of influenza virus A/WSN/33 in infected A549 cells (Influenza A virus A/WSN/33, UniProt P15682); assay: flow cytometry on cells; settings: one partner purified
NP of influenza virus A/WSN/33 in infected A549 cells, sequence (P15682 whole entry): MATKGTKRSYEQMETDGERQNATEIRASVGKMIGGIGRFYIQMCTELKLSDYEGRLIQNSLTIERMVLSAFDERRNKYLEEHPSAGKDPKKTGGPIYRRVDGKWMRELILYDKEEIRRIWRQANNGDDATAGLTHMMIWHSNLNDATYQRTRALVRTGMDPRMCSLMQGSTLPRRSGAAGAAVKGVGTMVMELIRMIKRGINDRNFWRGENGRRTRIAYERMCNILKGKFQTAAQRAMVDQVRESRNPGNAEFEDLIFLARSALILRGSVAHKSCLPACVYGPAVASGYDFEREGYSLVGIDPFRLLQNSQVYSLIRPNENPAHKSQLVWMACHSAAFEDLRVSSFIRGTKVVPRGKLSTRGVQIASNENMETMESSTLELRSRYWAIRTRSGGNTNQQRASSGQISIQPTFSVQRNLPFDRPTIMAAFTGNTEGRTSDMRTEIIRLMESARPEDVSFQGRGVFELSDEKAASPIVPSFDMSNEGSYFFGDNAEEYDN

[3] = biological target: NP of influenza virus A/PR/8/34 in infected A549 cells (Influenza A virus A/PR/8/34, UniProt P03466); assay: flow cytometry on cells; settings: one partner purified
NP of influenza virus A/PR/8/34 in infected A549 cells, sequence (P03466 whole entry): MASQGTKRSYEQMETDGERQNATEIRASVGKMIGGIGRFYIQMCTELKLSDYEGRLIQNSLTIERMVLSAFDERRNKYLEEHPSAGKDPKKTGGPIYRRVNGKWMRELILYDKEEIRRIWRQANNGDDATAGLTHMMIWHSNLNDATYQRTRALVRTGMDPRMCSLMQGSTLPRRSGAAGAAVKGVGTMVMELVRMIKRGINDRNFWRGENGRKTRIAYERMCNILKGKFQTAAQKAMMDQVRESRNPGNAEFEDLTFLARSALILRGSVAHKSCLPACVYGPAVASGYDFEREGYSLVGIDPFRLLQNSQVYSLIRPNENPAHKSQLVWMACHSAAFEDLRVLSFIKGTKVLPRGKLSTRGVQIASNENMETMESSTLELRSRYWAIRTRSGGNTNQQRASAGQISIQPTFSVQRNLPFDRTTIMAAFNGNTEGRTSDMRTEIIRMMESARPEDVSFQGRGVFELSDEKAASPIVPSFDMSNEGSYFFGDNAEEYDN

NP-Renilla wild type (NP of influenza virus A/WSN/33), sequence (P15682 whole entry): as the sequence (P15682 whole entry) above

Binder	binding result [1]	binding result [2]	binding result [3]
B1	binds		
B2		binds	binds
